Earlier results on one substance are cited in paper PMC3417803.

Where two headings read alike, the source gives them in different places.

As a reminder, the Kd is the constant that tells how readily two partners part at equilibrium.

Data set [1] addresses Midkine (Homo sapiens) (UniProt P21741).
Data set [2] has the same target. The source holds these as a separate data set.

UniProt P21741, sequence (P21741 21-143): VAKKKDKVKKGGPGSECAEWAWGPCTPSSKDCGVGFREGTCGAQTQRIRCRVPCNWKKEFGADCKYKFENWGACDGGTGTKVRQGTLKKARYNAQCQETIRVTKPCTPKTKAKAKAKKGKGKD

Turning to PTPζ (from UniProt P23471), the Kd in the data set with Midkine (Homo sapiens) [1] is 0.56 nM; with Midkine (Homo sapiens) [2], 8.8 nM.
